{"source": "paper PMC12584617", "system": "T1, NsrX (Alr1976) (Anabaena sp. strain PCC 7120), ORF:44a8eb4f", "T1 sequence": "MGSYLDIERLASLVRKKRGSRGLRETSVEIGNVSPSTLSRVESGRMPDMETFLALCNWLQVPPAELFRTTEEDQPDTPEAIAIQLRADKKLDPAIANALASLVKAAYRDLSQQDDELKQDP", "experiment": "EMSA", "details": "10 mM Bis-Tris-HCl pH 7.5, 40 mM KCl, 0.1 mg/mL BSA, 5% glycerol, 50 ng DNA, 50-100 ng ifpkn22 competitor, 30 min room temperature; NsrX +100 uM MnCl2 (also in …)", "data": [{"sequence": "CATCTTGGAAACCAAGTTGCACAAACATCAGTAAGACAATAAAAGCAATGCCAGCTACAGCTATAAGAAAACGAATTTTCTGTTGGACTAGCTGTAGCCATGCTAAAGGAATTTTAAAATTCATATTGATTTTGTCAGTTGACAGTTGATAGTTGATAGTTGTCAGTTGACTAATGACAATTAAATTTGAATCGCTACATCAACTTGTAAGTTGGTCAAACGTCCTACCCGTTCGCTATCTGCG (double strand) [PhgdC]", "values": [{"measurement": "binding", "result": "binds"}]}, {"sequence": "GGCGTGTGGCTCTTGTTCTAGTAGTACAGCCACCTTAAAGATAGCGATTGAATCCAGATTACGCGATCGCATCAACCCCAGCCTAGTAGTAGAAGCAGTTTAGTTAACAGTTAACAGTAAACCGTTAACTAACACCCAAAAGAACTTTCACAACTACATAACGAACCCATCATGAACACTAATTCTACTGGTTTTTCTGTGGAGCGATCGCCCCCTCTTCGGCGACGTTCTACAAACCCCTCACAGCCATAGCTCAACAGGCGTGAGATCCAAACACAAAGACCGACCAACTAACCAACC (double strand) [PnifHDK]", "values": [{"measurement": "binding", "result": "binds"}]}]}
